Experimental data: the supplement of paper PMC10065799, “High-throughput profiling of sequence recognition by tyrosine kinases and SH2 domains using bacterial peptide display” (eLife, 2023)

How the values were obtained:
Fes = Fes (UniProt P07332); experiment: phosphorylation enrichment, bacterial display (enrichment ratio); higher = better substrate or ligand; peptides without Tyr show the background
Jak2 = Jak2 (UniProt O60674); experiment: as above
c-Src = experiment: as above
Fyn = Fyn (UniProt P06241); experiment: as above
FGFR3 = FGFR3 (UniProt P22607); experiment: as above
c-Abl (mouse) = experiment: as above
EPHB1 = EPHB1 (UniProt P54762); experiment: as above
FGFR1 = FGFR1 (UniProt P11362); experiment: as above
Hck = Hck (UniProt P08631); experiment: as above
AncSZ = experiment: as above
EPHB2 = EPHB2 (UniProt P29323); experiment: as above
MERTK = MERTK (UniProt Q12866); experiment: as above
Fer (mouse) = experiment: as above
c-Src SH2 = experiment: SH2 binding enrichment of the phosphorylated peptide, bacterial display (enrichment ratio); higher = better substrate or ligand; peptides without Tyr show the background
SHP2-C SH2 = experiment: as above
Grb2 SH2 = Grb2 SH2 (UniProt P62993); experiment: as above
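For SH2 binding enrichment of the phosphorylated peptide, bacterial display in this document: peptide library displayed on the E. coli surface as eCPX fusions, selected cells deep-sequenced, score is each peptide's frequency after selection divided by its frequency in the input.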
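For phosphorylation enrichment, bacterial display in this document: 11-residue human phosphosite peptides and single-mutation variants displayed on the E. coli surface, counted by deep sequencing, each peptide's frequency after selection divided by its frequency in the unselected input library; frequency after pTyr selection over input frequency; kinase dosed for 20-30% of maximal phosphorylation in three min.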

Chain of Fyn (P06241 whole entry, looked up): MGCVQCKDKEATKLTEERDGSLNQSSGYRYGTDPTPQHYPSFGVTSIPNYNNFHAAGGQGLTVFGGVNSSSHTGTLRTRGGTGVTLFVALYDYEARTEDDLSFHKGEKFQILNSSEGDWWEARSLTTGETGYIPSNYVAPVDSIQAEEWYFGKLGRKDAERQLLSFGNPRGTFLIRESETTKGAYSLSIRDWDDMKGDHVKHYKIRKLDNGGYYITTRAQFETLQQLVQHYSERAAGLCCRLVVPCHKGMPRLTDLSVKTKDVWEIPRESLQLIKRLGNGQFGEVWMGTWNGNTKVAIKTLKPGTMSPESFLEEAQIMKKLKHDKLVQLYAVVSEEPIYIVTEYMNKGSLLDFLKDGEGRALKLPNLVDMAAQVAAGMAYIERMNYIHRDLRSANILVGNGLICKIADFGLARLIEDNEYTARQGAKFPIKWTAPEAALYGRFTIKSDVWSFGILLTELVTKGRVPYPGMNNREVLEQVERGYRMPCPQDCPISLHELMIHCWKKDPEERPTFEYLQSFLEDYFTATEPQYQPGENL
Chain of FGFR1 (P11362 whole entry, looked up): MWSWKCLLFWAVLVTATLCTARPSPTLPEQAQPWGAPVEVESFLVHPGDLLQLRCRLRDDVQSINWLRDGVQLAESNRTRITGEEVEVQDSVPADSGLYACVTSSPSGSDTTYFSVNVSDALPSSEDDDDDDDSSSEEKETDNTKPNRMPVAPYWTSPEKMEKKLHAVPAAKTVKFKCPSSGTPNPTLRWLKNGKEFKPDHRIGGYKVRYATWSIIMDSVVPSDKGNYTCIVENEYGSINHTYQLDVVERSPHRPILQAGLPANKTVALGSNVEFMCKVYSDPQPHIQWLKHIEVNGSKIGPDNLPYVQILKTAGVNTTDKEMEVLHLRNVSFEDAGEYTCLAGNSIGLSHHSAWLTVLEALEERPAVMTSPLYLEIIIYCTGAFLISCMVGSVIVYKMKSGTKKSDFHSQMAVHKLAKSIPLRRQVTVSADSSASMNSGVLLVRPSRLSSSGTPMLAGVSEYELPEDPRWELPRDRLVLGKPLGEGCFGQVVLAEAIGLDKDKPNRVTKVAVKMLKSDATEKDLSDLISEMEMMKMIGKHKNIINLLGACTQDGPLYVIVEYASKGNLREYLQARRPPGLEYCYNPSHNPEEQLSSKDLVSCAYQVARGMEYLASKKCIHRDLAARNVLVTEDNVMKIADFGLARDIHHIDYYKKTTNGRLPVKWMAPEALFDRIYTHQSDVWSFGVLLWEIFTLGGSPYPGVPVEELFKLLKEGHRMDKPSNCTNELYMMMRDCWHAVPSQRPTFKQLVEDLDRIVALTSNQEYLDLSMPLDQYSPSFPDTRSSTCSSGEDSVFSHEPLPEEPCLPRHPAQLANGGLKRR
Chain of Grb2 SH2 (P62993 whole entry, looked up, the tested form may be a part): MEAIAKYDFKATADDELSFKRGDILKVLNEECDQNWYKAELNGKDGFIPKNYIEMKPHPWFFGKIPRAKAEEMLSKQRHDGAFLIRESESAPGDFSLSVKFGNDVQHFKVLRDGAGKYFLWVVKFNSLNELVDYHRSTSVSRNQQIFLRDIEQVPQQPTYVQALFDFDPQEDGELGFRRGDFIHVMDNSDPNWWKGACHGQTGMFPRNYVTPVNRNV
Chain of EPHB1 (P54762 whole entry, looked up): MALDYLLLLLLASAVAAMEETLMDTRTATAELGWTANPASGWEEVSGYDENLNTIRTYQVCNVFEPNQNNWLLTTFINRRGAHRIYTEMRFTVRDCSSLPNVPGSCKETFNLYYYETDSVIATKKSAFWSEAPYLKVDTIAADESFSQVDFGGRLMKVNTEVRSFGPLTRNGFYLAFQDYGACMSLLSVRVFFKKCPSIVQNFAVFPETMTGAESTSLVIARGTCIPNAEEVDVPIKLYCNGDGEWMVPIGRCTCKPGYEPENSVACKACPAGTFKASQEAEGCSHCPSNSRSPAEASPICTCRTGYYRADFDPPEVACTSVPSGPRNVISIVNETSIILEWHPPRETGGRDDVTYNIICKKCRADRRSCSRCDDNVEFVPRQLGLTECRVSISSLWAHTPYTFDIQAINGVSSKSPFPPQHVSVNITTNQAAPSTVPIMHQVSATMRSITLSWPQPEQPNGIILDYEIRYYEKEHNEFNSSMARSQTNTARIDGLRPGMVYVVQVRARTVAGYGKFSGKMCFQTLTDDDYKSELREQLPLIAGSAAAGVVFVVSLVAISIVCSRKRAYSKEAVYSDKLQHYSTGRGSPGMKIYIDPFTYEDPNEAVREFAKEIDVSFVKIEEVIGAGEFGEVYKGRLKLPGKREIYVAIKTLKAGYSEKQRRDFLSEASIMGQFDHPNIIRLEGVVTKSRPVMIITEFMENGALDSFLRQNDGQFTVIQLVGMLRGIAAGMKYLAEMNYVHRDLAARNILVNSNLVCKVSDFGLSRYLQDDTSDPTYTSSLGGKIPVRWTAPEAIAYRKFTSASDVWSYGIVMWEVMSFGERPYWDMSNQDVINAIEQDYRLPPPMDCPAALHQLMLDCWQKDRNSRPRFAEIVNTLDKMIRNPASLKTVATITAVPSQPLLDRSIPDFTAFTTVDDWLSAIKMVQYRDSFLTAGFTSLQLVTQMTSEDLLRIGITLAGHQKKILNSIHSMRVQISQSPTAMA
Chain of Fes (P07332 whole entry, looked up): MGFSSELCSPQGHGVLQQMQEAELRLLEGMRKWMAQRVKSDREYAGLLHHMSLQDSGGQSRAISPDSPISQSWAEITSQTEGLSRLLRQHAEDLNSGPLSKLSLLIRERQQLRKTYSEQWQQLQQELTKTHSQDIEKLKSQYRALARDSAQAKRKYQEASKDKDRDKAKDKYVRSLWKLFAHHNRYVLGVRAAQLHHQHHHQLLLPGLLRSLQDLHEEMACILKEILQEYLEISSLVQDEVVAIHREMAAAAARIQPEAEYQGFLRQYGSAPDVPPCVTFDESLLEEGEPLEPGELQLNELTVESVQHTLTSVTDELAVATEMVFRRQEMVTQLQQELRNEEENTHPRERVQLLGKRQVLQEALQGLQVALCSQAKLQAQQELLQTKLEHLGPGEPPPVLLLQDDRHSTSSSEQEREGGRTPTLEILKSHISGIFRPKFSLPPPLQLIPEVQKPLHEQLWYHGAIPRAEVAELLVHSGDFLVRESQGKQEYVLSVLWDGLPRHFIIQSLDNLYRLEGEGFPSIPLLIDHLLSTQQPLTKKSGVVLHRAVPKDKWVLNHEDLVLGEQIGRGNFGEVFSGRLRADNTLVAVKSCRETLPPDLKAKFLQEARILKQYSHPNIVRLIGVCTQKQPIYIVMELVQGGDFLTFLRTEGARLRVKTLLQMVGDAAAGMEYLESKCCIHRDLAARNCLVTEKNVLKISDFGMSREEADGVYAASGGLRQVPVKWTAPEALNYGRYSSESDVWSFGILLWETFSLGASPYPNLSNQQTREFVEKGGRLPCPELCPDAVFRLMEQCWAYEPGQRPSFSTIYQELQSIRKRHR
Chain of EPHB2 (P29323 whole entry, looked up): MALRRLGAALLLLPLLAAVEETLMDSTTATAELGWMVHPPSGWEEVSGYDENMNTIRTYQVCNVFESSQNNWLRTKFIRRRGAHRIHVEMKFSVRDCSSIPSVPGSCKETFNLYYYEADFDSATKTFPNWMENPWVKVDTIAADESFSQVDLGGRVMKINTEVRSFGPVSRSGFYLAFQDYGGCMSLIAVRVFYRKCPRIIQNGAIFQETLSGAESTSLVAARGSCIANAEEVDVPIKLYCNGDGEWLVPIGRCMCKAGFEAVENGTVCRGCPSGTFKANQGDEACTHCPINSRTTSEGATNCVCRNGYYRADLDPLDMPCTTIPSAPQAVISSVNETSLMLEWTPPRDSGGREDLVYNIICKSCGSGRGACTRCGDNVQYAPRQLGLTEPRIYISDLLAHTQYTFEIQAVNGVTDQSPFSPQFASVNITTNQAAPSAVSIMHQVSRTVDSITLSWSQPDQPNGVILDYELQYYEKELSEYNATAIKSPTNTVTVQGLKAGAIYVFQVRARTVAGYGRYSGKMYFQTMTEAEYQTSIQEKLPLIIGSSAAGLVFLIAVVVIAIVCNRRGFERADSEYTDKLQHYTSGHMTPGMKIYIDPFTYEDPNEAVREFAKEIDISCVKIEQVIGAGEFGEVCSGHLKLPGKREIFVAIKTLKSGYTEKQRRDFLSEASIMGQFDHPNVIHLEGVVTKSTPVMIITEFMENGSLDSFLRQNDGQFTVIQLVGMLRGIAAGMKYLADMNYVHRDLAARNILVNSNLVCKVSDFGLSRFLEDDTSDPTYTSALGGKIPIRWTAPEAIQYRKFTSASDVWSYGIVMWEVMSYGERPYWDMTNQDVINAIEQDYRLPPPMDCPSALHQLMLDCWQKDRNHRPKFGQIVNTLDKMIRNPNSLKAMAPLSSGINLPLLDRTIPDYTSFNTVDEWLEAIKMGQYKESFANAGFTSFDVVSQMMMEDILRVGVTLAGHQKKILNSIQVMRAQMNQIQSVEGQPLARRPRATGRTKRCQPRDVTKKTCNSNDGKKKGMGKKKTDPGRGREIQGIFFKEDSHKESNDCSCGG
Chain of Hck (P08631 whole entry, looked up): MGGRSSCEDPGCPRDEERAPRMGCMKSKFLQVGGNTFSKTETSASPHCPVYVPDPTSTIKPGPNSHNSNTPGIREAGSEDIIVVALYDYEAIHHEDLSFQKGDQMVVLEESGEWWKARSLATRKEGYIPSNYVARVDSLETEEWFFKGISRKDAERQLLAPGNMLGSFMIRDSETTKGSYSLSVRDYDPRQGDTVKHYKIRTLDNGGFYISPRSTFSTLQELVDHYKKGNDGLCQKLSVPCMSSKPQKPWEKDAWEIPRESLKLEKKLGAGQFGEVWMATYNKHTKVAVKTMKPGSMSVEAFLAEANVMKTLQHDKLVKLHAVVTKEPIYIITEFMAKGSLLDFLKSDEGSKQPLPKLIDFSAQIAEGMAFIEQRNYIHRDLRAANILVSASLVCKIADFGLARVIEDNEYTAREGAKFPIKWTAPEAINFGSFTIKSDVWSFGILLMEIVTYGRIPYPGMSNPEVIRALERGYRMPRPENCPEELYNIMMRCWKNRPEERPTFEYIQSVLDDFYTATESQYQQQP

| Sequence | phosphorylation enrichment (Fes) | phosphorylation enrichment (Jak2) | phosphorylation enrichment (c-Src) | phosphorylation enrichment (Fyn) | phosphorylation enrichment (FGFR3) | phosphorylation enrichment (c-Abl (mouse)) | phosphorylation enrichment (EPHB1) | phosphorylation enrichment (FGFR1) | phosphorylation enrichment (Hck) | phosphorylation enrichment (AncSZ) | phosphorylation enrichment (EPHB2) | phosphorylation enrichment (MERTK) | phosphorylation enrichment (Fer (mouse)) | SH2 binding enrichment (c-Src SH2) | SH2 binding enrichment (SHP2-C SH2) | SH2 binding enrichment (Grb2 SH2) |
| --- | --- | --- | --- | --- | --- | --- | --- | --- | --- | --- | --- | --- | --- | --- | --- | --- |
| PLGVLYKVKVY [PTS_Y128_V124L] | 1.4 | 1.19 | 0.36 | 0.339 | 0.82 | 0.876 | 0.674 | 0.415 | 0.465 | 1.61 | 0.626 | 0.318 | 0.511 | 0.484 | 0.817 | 0.828 |
| MKSIKYMDKEI [CCDC60_Y41] | 0.569 | 0.603 | 0.447 | 0.375 | 0.389 | 0.457 | 0.399 | 0.452 | 0.402 | 0.578 | 0.392 | 0.44 | 0.514 | 0.405 | 0.525 | 0.797 |
| AGIVVYNIIGW [MYH7_Y588_D587V] | 1.57 | 1.37 | 2.14 | 2.31 | 0.807 | 1.51 | 0.919 | 0.506 | 2.35 | 1.14 | 0.633 | 1.17 | 0.726 | 0.61 | 0.669 | 0.792 |
| IDPFTYTPFGS [CYP3A4_Y432_I431T_YF] | 0.851 | 0.755 | 2.88 | 0.91 | 0.523 | 0.581 | 0.431 | 0.486 | 1.18 | 0.724 | 0.705 | 0.561 | 0.587 | 0.597 | 0.863 | 0.746 |
| EEGRVYVYHLS [ITGAE_Y549_R552H] | 1.22 | 0.998 | 0.828 | 0.64 | 0.75 | 0.713 | 0.576 | 0.58 | 0.519 | 1.13 | 0.491 | 0.449 | 0.756 | 0.438 | 0.897 | 0.701 |
| LNERHYGGLTG [PGAM2_Y92] | 0.856 | 4.09 | 0.47 | 0.53 | 0.552 | 0.789 | 0.417 | 0.607 | 0.454 | 0.679 | 0.432 | 0.527 | 0.394 | 0.415 | 0.53 | 0.761 |
| NPQKSCFIRLY [WAS_Y83_Y83C] | 1.14 | 1.07 | 0.403 | 0.504 | 0.769 | 0.783 | 0.597 | 0.441 | 0.494 | 1.02 | 0.503 | 0.396 | 0.481 | 0.533 | 0.654 | 0.783 |
| IQSAKYDMAED [TTC21B_Y1213] | 1.21 | 1.2 | 0.513 | 0.59 | 0.793 | 0.825 | 0.572 | 0.611 | 0.687 | 1.21 | 0.724 | 0.484 | 0.503 | 1.3 | 0.679 | 0.823 |
